Changes are numbered by the printed parent chain.

B1: humanized 4B4 Fab 4B4_6 (VL1a, VH1A) (Fab, V domains shown)
VH: QVQLVETGGGLVKPGQSLKLTCATSGFTFSNAWMHWVRQSPEKGLEWVAQIKARSNNYATYYAESVKGRFTISRDDSKSTIYLQMNSLTPEDTAIYYCRGTYYASKPFDYWGQGVMVTVSS
VL: DVVMTQTPVSLSVSVGGRVSISCRSSQSLVHDNGNTYLSWSLQKPGKSPKVLIYKVSNRFSGVSSRFTGSGSGTDFTLKISSVQPDDLGVYYCGQGTQYPFTFGSGTKLEIK
notes: expressed as Fab-fragment
B2: humanized 4B4 Fab 4B4_7 (VL1b, VH1A) (Fab, V domains shown)
VH: B1 VH
VL: B1 VL with G34A
notes: expressed as Fab-fragment
B3: humanized 4B4 Fab 4B4_1 (VL1a, VH1B) (Fab, V domains shown)
VH: B1 VH with E64V
VL: B1 VL
notes: expressed as Fab-fragment
B4: humanized 4B4 Fab 4B4_2 (VL1b, VH1B) (Fab, V domains shown)
VH: B1 VH with E64V
VL: B1 VL with G34A
notes: expressed as Fab-fragment
B5: humanized 4B4 Fab 4B4_10 (VL1_CM2, VH6_BM2) (Fab, V domains shown)
VH: QVQLVESGGRVVQPGRSLRLTCAASGFTFSNAWMHWVRQAPGKQLEWVAQIKARSNNYATYYAESVKGRFTISRDDSKSTIYLQMNSLRAEDTAVYYCRGTYYASKPFDYWGQGTTVTVSS
VL: DVVMTQSPLSLSVTLGQPVSISCRSSQSLVHDNGNTYLSWSLQRPGQSPRVLIYKVSNRFSGVPDRFSGSGSGTDFTLKISRVEAEDVGVYYCGQGTQYPFTFGSGTKLEIK
B6: humanized 4B4 Fab 4B4_20 (VL2F, VH6C) (Fab, V domains shown)
VH: B5 VH with R10G, T21S, E64D, I81L, T116L
VL: DIVMTQTPLSLSVTPGQPASISCKSSQSLVHDNANTYLSWYLQKPGQSPQSLIYKVSNRFSGVPDRFSGSGSGTDFTLKISRVEAEDVGVYYCGQGTQYPFTFGSGTKVEIK
notes: expressed as Fab-fragment
B7: humanized 4B4 Fab 4B4_5 (VL2C, VH6D) (Fab, V domains shown)
VH: B5 VH with R10G, T21S, A24T, E64D, T116L
VL: B6 VL with A34G, Y41S, S51V, V109L
notes: expressed as Fab-fragment
B8: humanized 4B4 Fab 4B4_17 (VL2A, VH2B) (Fab, V domains shown)
VH: B1 VH with Q1E, K13Q, Q16G, E64D, T89R, P90A
VL: B1 VL with V15P, R18P, K47Q, K50Q, S65D, S82R, Q84E
notes: expressed as Fab-fragment
B9: humanized 4B4 Fab 4B4_9 (VL2B, VH2A) (Fab, V domains shown)
VH: B1 VH with Q1E, K13Q, Q16G, T89R, P90A
VL: B1 VL with V15P, R18P, G34A, K47Q, K50Q, S65D, S82R, Q84E
notes: expressed as Fab-fragment
B10: 11F9-F8 anti-CD3 antibody (hybridoma supernatant) (antibody, V domains shown)
VH: EVQLVETGGTLVQPGKSLKLTCATSGFTFSNAWMHWVRQSPEKQLEWVAQIKAKSNNYATYYAESVKGRFTISRDDSKTSVYLQLNSLREEDTAIYYCRGTQYGYNPFDYWGQGVMVTVSS
VL: DVVLTQTPVSLSVSLGGQVSISCRSSQSLVHNNGNTYLSWSLQKPGQSPQVLIYKVSNRFSGISNRFSGSGSGTDFTLKISRVEPDDLGVYYCGQGAHYPFTFGSGTKLEIK
notes: rat IgG in hybridoma supernatant
B11: 4B4-D7 anti-CD3 antibody (hybridoma supernatant) (antibody, V domains shown)
VH: B1 VH with Q1E, G10R, K13Q, Q16R, G44Q, T89K, P90E
VL: B10 VL with L4M, N32D, K44R, I63T, N65D, S68T, A97T, H98Q
notes: as for B10
B12: 13C1-F6 anti-CD3 antibody (hybridoma supernatant) (antibody, V domains shown)
VH: B10 VH
VL: DVVMTQSPVSLSVSLGGQVSISCRSSQSLVHNNGNTYLSWYLQRSGQSPQLLIYKVSNRLSGISDRFSGSGSGTDFTLKISRIEPDDLGVYYCGQGTQYPFTFGSGTRLEIK
notes: as for B10
B13: 6C9-C9 anti-CD3 antibody (hybridoma supernatant) (antibody, V domains shown)
VH: AVQLVESGGGLVRPKESLKISCAASGFTFRNAAMYWVRQAPGKGLEWVARIRTQPNNYAKYYADSVKDRFTISRDDSKSMVYLQMDNLKTEDTAMYYCTGLVVTAMDAWGQGTSVTVSS
VL: DIQMTQSPSFLSASVGDRVTINCKASQNINKYLNWYQQKLGEAPKLLIYVTNNLQTGIPSRFSGSGSGTDYTLTISSLQPEDVATYFCLQHRSMYTFGTGTKLELK
notes: as for B10
B14: 8H2-F3 anti-CD3 antibody (hybridoma supernatant) (antibody, V domains shown)
VH: QIQLVQSGPELKKPGESVKISCKASGYTFTDFAMNWVKQAPGNGLKWMGWINTQTGKPTYADGFKQRFVFSLETSASTIYLQINNLNIEDTATYFCTRGALASVGQGVMVTVSS
VL: DVVMTQTPVSLSVAIGQPASISCKSSQSLVGTSGKTYLNWLLQRPGQSPKRLIYLVSKLDSGIPDRFSGSGSETDFTLKISRVETDDLGVYYCLQGSHFPLTFGSGTKLEIK
notes: as for B10
B15: CODV-Fab 7G3 × 20G6 with humanized 20G6 VL1D_VH1B (bispecific antibody)
light: DIVMTQTPLSLSVTPGQPASISCKSSQSLVHNNGNTYLSWYLQKPGQSPQSLIYKVSNRFSGVPDRFSGSGSGTDFTLKISRVEAEDVGVYYCGQGTQYPFTFGSGTKVEIKGQPKAAPDFVMTQSPSSLTVTAGEKVTMSCKSSQSLLNSGNQKNYLTWYLQKPGQPPKLLIYWASTRESGVPDRFTGSGSGTDFTLTISSVQAEDLAVYYCQNDYSYPYTFGGGTKLEIKTKGPSRTVAAPSVFIFPPSDEQLKSGTASVVCLLNNFYPREAKVQWKVDNALQSGNSQESVTEQDSKDSTYSLSSTLTLSKADYEKHKVYACEVTHQGLSSPVTKSFNRGEC
heavy: EVQLQQSGPELVKPGASVKMSCKASGYTFTDYYMKWVKQSHGKSLEWIGDIIPSNGATFYNQKFKGKATLTVDRSSSTAYMHLNSLTSEDSAVYYCTRSHLLRASWFAYWGQGTLVTVSASQVQLVESGGGVVQPGRSLRLSCAASGFTFTKAWMHWVRQAPGKQLEWVAQIKDKSNSYATYYADSVKGRFTISRDNSKNTLYLQMNSLRAEDTAVYYCRGVYYALSPFDYWGQGTLVTVSSRTASTKGPSVFPLAPSSKSTSGGTAALGCLVKDYFPEPVTVSWNSGALTSGVHTFPAVLQSSGLYSLSSVVTVPSSSLGTQTYICNVNHKPSNTKVDKKVEPKSCDKTHTHHHHHH
B16: CODV-Fab 7G3 × 20G6 with humanized 20G6 VL1D_VH1D (bispecific antibody)
light: B15 light
heavy: B15 heavy with N197D
notes: same V domains as hz20G6x7G3 but the other order
B17: CODV-Fab 7G3 × 20G6 with humanized 20G6 VL1A_VH1A (bispecific antibody)
light: B15 light with S51L, S105Q, V109L
heavy: B15 heavy with Q165G
B18: CODV-Fab 7G3 × 20G6 with humanized 20G6 VL1C_VH1D (bispecific antibody)
light: B15 light with G34A
heavy: B15 heavy with N197D
B19: CODV-Fab 7G3 × 20G6 with humanized 20G6 VL1D_VH1C (bispecific antibody)
light: B15 light
heavy: B15 heavy with D185A, N197D
B20: CODV-Fab 7G3 × 20G6 with humanized 20G6 VL1B_VH1A (bispecific antibody)
light: B15 light with S51L, S105G
heavy: B15 heavy with Q165G

The target of the first experiment is T1, human CD3ε/δ-Fc fusion protein (soluble recombinant CD3ε/δ complex) (human, UniProt P04234 22-105).
T1 construct: also called huCD3ε/δ; huCD3; not shown: hinge, CH2, CH3 of human IgG with tag
T1 sequence (chain, as listed by the source mutant, chain 1 of 2): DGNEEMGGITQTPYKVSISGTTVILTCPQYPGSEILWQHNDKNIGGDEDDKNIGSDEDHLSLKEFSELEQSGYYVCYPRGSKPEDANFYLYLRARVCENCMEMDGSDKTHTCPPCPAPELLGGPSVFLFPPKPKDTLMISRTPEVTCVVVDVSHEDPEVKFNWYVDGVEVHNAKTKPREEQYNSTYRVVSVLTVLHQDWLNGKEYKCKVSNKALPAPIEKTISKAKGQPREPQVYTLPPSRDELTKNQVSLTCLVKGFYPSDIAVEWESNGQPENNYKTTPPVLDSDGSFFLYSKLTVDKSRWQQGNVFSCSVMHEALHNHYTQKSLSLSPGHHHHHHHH
T1 sequence (P04234 22-105, stated change not applied, chain 2 of 2): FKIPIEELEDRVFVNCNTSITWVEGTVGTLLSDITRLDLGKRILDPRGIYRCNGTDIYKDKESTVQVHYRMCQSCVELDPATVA
Put plainly: SPR Biacore, Fab. The protocol: (§1) Binding affinities of anti-CD3 binding Fabs or CODV-Fabs were measured by surface plasmon resonance (SPR) using a Biacore3000 instrument (GE Healthcare). Assay buffer was HBS-EP (BR-1001-88, GE Healthcare). Capture of CD3ε/δ-Fc fusion proteins was achieved using the human antibody capture kit (GE Healthcare). […] The CD3εδ-Fc fusions proteins were captured at 10 μl/min to approx. 70 RU to yield Rmax values of 30 RU. Binding kinetics with the anti-CD3 Fabs or CODV-Fabs was measured at 30 μl/min for 240 sec. and 600 sec. for association and dissociation phase, respectively. Twofold dilutions of Fabs from 3 to 400 nM in assay buffer were used. All Fab concentrations were run in duplicate together with duplicate buffer blanks for double referencing. Regeneration of the capture surface was performed with a 1 min injection of 3M MgCl2 solution at 30 μl/min. For data analysis the BIAevaluation software v.4.1 (GE Healthcare) was used. Data were fit globally using a 1:1 Langmuir model with mass transfer.
On to B1, for which the Kd was determined as 1.24 nM, the koff came to 0.00185 s⁻¹ and the kon came to 1.5e+06 M⁻¹ s⁻¹.

With B2, the Kd was determined as 8.1 nM, the koff was found to be 0.00248 s⁻¹ and the kon stood at 306000 M⁻¹ s⁻¹.

Consider B3, for which the Kd worked out at 2.77 nM, the koff was found to be 0.00174 s⁻¹ and the kon amounted to 628000 M⁻¹ s⁻¹.

Take B4: the dissociation constant (Kd) is 7.48 nM, the off-rate (koff) was determined as 0.00214 s⁻¹ and the on-rate (kon) was 286000 M⁻¹ s⁻¹.

Regarding B5, the Kd stood at 9.19 nM, the off-rate (koff) amounted to 0.00399 s⁻¹ and the on-rate (kon) is 434000 M⁻¹ s⁻¹.

For B6, the dissociation constant (Kd) was found to be 33.5 nM, the dissociation rate constant (koff) was 0.00171 s⁻¹ and the kon was determined as 50900 M⁻¹ s⁻¹.

In the case of B7, the Kd turned out to be 18.2 nM, the koff came to 0.00423 s⁻¹ and the kon stood at 233000 M⁻¹ s⁻¹.

Consider B8, for which the Kd worked out at 8.91 nM, the koff was determined as 0.00276 s⁻¹ and the kon worked out at 310000 M⁻¹ s⁻¹.

In the case of B9, the Kd came out at 13.4 nM, the koff was found to be 0.00291 s⁻¹ and the on-rate (kon) was found to be 218000 M⁻¹ s⁻¹.

For a further experiment, the target named is T1, human CD3ε/δ-Fc fusion protein (soluble …). Put plainly: SPR single point, hybridoma supernatant. The protocol:
Rats with positive sera were scarified and B cells were fused with mouse myeloma cells. The resulting hybrndomas were screened on HEK293 cells transfected with human or cynomoligus CD3ε and CD3δ expression plasmids, on Jurkat E6.1 (CD3+) and Jurkat T3.5 (CD3-) by flow cytometry. Supernatant of Hybridoma clones was used to assess by surface plasmon resonance single point kinetic against human and Macaca fascicularis CD3ε/δ complex by fixing the analyte at 25 nM (data presented in table 3).
For B10, the “RU at 25 nM” value was 11.5 RU.

As for B11, the “RU at 25 nM” value was 11 RU.

As for B12, the “RU at 25 nM” value was 17 RU.

Regarding B13, the “RU at 25 nM” value came to 26 RU.

On to B14, for which the “RU at 25 nM” value was determined as 32.5 RU.

A further experiment has the same target. Nature of the experiment: SPR Biacore, CODV-Fab on recombinant CD3ε/δ. The protocol:
as §1
In the case of B15, the Kd was 58.7 nM, the dissociation rate constant (koff) stood at 0.00109 s⁻¹ and the kon is 18600 M⁻¹ s⁻¹.

With B16, the dissociation constant Kd is 31 nM, the koff worked out at 0.000746 s⁻¹ and the kon was 24000 M⁻¹ s⁻¹.

Regarding B17, the Kd worked out at 152 nM, the off-rate constant (koff) was found to be 0.00434 s⁻¹ and the kon came out at 28600 M⁻¹ s⁻¹.

In the case of B18, the Kd turned out to be 44 nM, the koff was determined as 0.00101 s⁻¹ and the kon was 23000 M⁻¹ s⁻¹.

B19: the Kd was determined as 32.1 nM, the koff was 0.000713 s⁻¹ and the on-rate (kon) is 22200 M⁻¹ s⁻¹.

As to B20, the Kd was 138 nM, the koff was determined as 0.00414 s⁻¹ and the kon came out at 29900 M⁻¹ s⁻¹.

The values are drawn from patent US20210292423A1 (published 2021).
